These results are taken from patent US20210032299A1 (Eli Lilly, published 2021).

Starred links: 1 amine or outer side, 2 acyl side, 3 side chain; linkers in the order of their positions; H or OH if unused. Non-standard residues stand in square brackets, D forms with d. Groups on a side chain read outwards from the residue. No end group written: not given here. *: point of attachment. C20 diacid = O=C(O)CCCCCCCCCCCCCCCCCCC(=O)*; C18 diacid = O=C(O)CCCCCCCCCCCCCCCCC(=O)*; αMePhe(2-F) = C[C@](N)(Cc1ccccc1F)C(=O)O; γGlu = O=C(O)[C@H](CCC(=O)[*:2])N[*:1]; αMeL = CC(C)C[C@](C)(N)C(=O)O; AEEA = NCCOCCOCC(=O)O; Aib = CC(C)(N)C(=O)O

Test in all cases: cell-based or functional assay
One assay has as its target human GLP-1 receptor (human, UniProt P43220 24-463).
A further assay concerns the target human glucagon receptor (human, UniProt P47871 26-477).
In assay [1] the target is T1, human glucose-dependent insulinotropic peptide receptor (human, UniProt P48546 22-466).
T1 sequence (looked up): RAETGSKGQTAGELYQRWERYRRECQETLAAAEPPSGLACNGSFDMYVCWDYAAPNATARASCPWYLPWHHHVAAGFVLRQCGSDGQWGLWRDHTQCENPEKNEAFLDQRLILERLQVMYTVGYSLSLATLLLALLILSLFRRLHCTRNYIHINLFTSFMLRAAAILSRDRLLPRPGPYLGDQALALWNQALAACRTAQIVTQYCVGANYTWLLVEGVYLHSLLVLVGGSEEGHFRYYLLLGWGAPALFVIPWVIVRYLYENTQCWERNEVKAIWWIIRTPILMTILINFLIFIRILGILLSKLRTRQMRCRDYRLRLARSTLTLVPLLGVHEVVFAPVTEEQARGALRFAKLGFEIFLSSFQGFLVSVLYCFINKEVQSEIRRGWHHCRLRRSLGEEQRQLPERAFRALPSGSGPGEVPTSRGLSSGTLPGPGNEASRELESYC

Sequence of human glucagon receptor (P47871 26-477): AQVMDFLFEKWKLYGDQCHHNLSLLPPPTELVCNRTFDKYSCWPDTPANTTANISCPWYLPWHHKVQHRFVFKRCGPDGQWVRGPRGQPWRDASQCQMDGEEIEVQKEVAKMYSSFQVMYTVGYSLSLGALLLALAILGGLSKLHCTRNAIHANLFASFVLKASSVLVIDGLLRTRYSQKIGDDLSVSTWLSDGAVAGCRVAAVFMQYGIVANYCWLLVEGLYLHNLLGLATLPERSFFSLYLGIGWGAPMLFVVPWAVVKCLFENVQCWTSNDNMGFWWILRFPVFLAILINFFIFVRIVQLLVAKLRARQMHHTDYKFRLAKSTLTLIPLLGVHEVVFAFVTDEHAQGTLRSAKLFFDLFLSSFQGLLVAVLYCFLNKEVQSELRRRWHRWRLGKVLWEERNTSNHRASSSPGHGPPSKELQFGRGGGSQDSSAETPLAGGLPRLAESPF

B1: Example 31 (peptide)
peptide: Y[Aib]EGTFISDYSILLDKK([AEEA-AEEA-γGlu-C18 diacid])HQ[Aib]DFVNYLLAAGPSSGAPPPS-NH2
modifications: N-terminus assumed
SMILES: CC[C@H](C)[C@H](NC(=O)[C@H](CO)NC(=O)[C@H](Cc1ccc(O)cc1)NC(=O)[C@H](CC(=O)O)NC(=O)[C@H](CO)NC(=O)[C@@H](NC(=O)[C@H](Cc1ccccc1)NC(=O)[C@@H](NC(=O)CNC(=O)[C@H](CCC(=O)O)NC(=O)C(C)(C)NC(=O)[C@@H](N)Cc1ccc(O)cc1)[C@@H](C)O)[C@@H](C)CC)C(=O)N[C@@H](CC(C)C)C(=O)N[C@@H](CC(C)C)C(=O)N[C@@H](CC(=O)O)C(=O)N[C@@H](CCCCN)C(=O)N[C@@H](CCCCNC(=O)COCCOCCNC(=O)COCCOCCNC(=O)CC[C@H](NC(=O)CCCCCCCCCCCCCCCCC(=O)O)C(=O)O)C(=O)N[C@@H](Cc1c[nH]cn1)C(=O)N[C@@H](CCC(N)=O)C(=O)NC(C)(C)C(=O)N[C@@H](CC(=O)O)C(=O)N[C@@H](Cc1ccccc1)C(=O)N[C@H](C(=O)N[C@@H](CC(N)=O)C(=O)N[C@@H](Cc1ccc(O)cc1)C(=O)N[C@@H](CC(C)C)C(=O)N[C@@H](CC(C)C)C(=O)N[C@@H](C)C(=O)N[C@@H](C)C(=O)NCC(=O)N1CCC[C@H]1C(=O)N[C@@H](CO)C(=O)N[C@@H](CO)C(=O)NCC(=O)N[C@@H](C)C(=O)N1CCC[C@H]1C(=O)N1CCC[C@H]1C(=O)N1CCC[C@H]1C(=O)N[C@@H](CO)C(N)=O)C(C)C
For B1, the “hGLP1R cAMP Rel EC50” value with human GLP-1 receptor is above 5000 nM. For the same molecule, the “hGcgR cAMP Rel EC50” value with human glucagon receptor is 1750 nM. In addition, the “hGIPR cAMP Rel EC50” value in assay [1] came to 0.0148 nM.

B2: Example 34 (peptide)
peptide: Y[Aib]EGT[αMePhe(2-F)]ISDYSIALDKK([AEEA-AEEA-γGlu-C20 diacid])HQ[Aib]EFVNYLLATGPSSGAPPPS-NH2
modifications: N-terminus assumed
SMILES: CC[C@H](C)[C@H](NC(=O)[C@H](CO)NC(=O)[C@H](Cc1ccc(O)cc1)NC(=O)[C@H](CC(=O)O)NC(=O)[C@H](CO)NC(=O)[C@@H](NC(=O)[C@](C)(Cc1ccccc1F)NC(=O)[C@@H](NC(=O)CNC(=O)[C@H](CCC(=O)O)NC(=O)C(C)(C)NC(=O)[C@@H](N)Cc1ccc(O)cc1)[C@@H](C)O)[C@@H](C)CC)C(=O)N[C@@H](C)C(=O)N[C@@H](CC(C)C)C(=O)N[C@@H](CC(=O)O)C(=O)N[C@@H](CCCCN)C(=O)N[C@@H](CCCCNC(=O)COCCOCCNC(=O)COCCOCCNC(=O)CC[C@H](NC(=O)CCCCCCCCCCCCCCCCCCC(=O)O)C(=O)O)C(=O)N[C@@H](Cc1c[nH]cn1)C(=O)N[C@@H](CCC(N)=O)C(=O)NC(C)(C)C(=O)N[C@@H](CCC(=O)O)C(=O)N[C@@H](Cc1ccccc1)C(=O)N[C@H](C(=O)N[C@@H](CC(N)=O)C(=O)N[C@@H](Cc1ccc(O)cc1)C(=O)N[C@@H](CC(C)C)C(=O)N[C@@H](CC(C)C)C(=O)N[C@@H](C)C(=O)N[C@H](C(=O)NCC(=O)N1CCC[C@H]1C(=O)N[C@@H](CO)C(=O)N[C@@H](CO)C(=O)NCC(=O)N[C@@H](C)C(=O)N1CCC[C@H]1C(=O)N1CCC[C@H]1C(=O)N1CCC[C@H]1C(=O)N[C@@H](CO)C(N)=O)[C@@H](C)O)C(C)C
In the case of B2, the “hGLP1R cAMP Rel EC50” value in the assay with human GLP-1 receptor was 462 nM. The “hGcgR cAMP Rel EC50” value with human glucagon receptor was 913 nM. Besides, the “hGIPR cAMP Rel EC50” value in assay [1] was 0.0177 nM.

B3: Example 33 (peptide)
peptide: Ac-[dY]AEGT[αMePhe(2-F)]ISDYSIALDKK([AEEA-AEEA-γGlu-C20 diacid])HQ[Aib]EFVNYLLEGGPSSGAPPPS-NH2
SMILES: CC[C@H](C)[C@H](NC(=O)[C@H](CO)NC(=O)[C@H](Cc1ccc(O)cc1)NC(=O)[C@H](CC(=O)O)NC(=O)[C@H](CO)NC(=O)[C@@H](NC(=O)[C@](C)(Cc1ccccc1F)NC(=O)[C@@H](NC(=O)CNC(=O)[C@H](CCC(=O)O)NC(=O)[C@H](C)NC(=O)[C@@H](Cc1ccc(O)cc1)NC(C)=O)[C@@H](C)O)[C@@H](C)CC)C(=O)N[C@@H](C)C(=O)N[C@@H](CC(C)C)C(=O)N[C@@H](CC(=O)O)C(=O)N[C@@H](CCCCN)C(=O)N[C@@H](CCCCNC(=O)COCCOCCNC(=O)COCCOCCNC(=O)CC[C@H](NC(=O)CCCCCCCCCCCCCCCCCCC(=O)O)C(=O)O)C(=O)N[C@@H](Cc1c[nH]cn1)C(=O)N[C@@H](CCC(N)=O)C(=O)NC(C)(C)C(=O)N[C@@H](CCC(=O)O)C(=O)N[C@@H](Cc1ccccc1)C(=O)N[C@H](C(=O)N[C@@H](CC(N)=O)C(=O)N[C@@H](Cc1ccc(O)cc1)C(=O)N[C@@H](CC(C)C)C(=O)N[C@@H](CC(C)C)C(=O)N[C@@H](CCC(=O)O)C(=O)NCC(=O)NCC(=O)N1CCC[C@H]1C(=O)N[C@@H](CO)C(=O)N[C@@H](CO)C(=O)NCC(=O)N[C@@H](C)C(=O)N1CCC[C@H]1C(=O)N1CCC[C@H]1C(=O)N1CCC[C@H]1C(=O)N[C@@H](CO)C(N)=O)C(C)C
In the case of B3, in the assay with human GLP-1 receptor, the “hGLP1R cAMP Rel EC50” value is above 5000 nM. Besides, the “hGcgR cAMP Rel EC50” value in the assay with human glucagon receptor is above 5000 nM. In assay [1], the “hGIPR cAMP Rel EC50” value turned out to be 0.0551 nM.

B4: Example 35 (peptide)
peptide: Y[Aib]EGT[αMeL]ISDYSIALDKK([AEEA-AEEA-γGlu-C20 diacid])HQ[Aib]EFVNYLLATGPSSGAPPPS-NH2
modifications: N-terminus assumed
SMILES: CC[C@H](C)[C@H](NC(=O)[C@H](CO)NC(=O)[C@H](Cc1ccc(O)cc1)NC(=O)[C@H](CC(=O)O)NC(=O)[C@H](CO)NC(=O)[C@@H](NC(=O)[C@](C)(CC(C)C)NC(=O)[C@@H](NC(=O)CNC(=O)[C@H](CCC(=O)O)NC(=O)C(C)(C)NC(=O)[C@@H](N)Cc1ccc(O)cc1)[C@@H](C)O)[C@@H](C)CC)C(=O)N[C@@H](C)C(=O)N[C@@H](CC(C)C)C(=O)N[C@@H](CC(=O)O)C(=O)N[C@@H](CCCCN)C(=O)N[C@@H](CCCCNC(=O)COCCOCCNC(=O)COCCOCCNC(=O)CC[C@H](NC(=O)CCCCCCCCCCCCCCCCCCC(=O)O)C(=O)O)C(=O)N[C@@H](Cc1c[nH]cn1)C(=O)N[C@@H](CCC(N)=O)C(=O)NC(C)(C)C(=O)N[C@@H](CCC(=O)O)C(=O)N[C@@H](Cc1ccccc1)C(=O)N[C@H](C(=O)N[C@@H](CC(N)=O)C(=O)N[C@@H](Cc1ccc(O)cc1)C(=O)N[C@@H](CC(C)C)C(=O)N[C@@H](CC(C)C)C(=O)N[C@@H](C)C(=O)N[C@H](C(=O)NCC(=O)N1CCC[C@H]1C(=O)N[C@@H](CO)C(=O)N[C@@H](CO)C(=O)NCC(=O)N[C@@H](C)C(=O)N1CCC[C@H]1C(=O)N1CCC[C@H]1C(=O)N1CCC[C@H]1C(=O)N[C@@H](CO)C(N)=O)[C@@H](C)O)C(C)C
Turning to B4, in the assay with human GLP-1 receptor, the “hGLP1R cAMP Rel EC50” value was above 5000 nM. Further, in the assay with human glucagon receptor, the “hGcgR cAMP Rel EC50” value was above 5000 nM. Also, in assay [1], the “hGIPR cAMP Rel EC50” value amounted to 0.0125 nM.

B5: Example 32 (peptide)
peptide: Y[dA]EGTLISDYSILLDKK([AEEA-AEEA-γGlu-C18 diacid])AQ[Aib]DFVNWLLAQGPSSGAPPPS-NH2
modifications: N-terminus assumed
SMILES: CC[C@H](C)[C@H](NC(=O)[C@H](CO)NC(=O)[C@H](Cc1ccc(O)cc1)NC(=O)[C@H](CC(=O)O)NC(=O)[C@H](CO)NC(=O)[C@@H](NC(=O)[C@H](CC(C)C)NC(=O)[C@@H](NC(=O)CNC(=O)[C@H](CCC(=O)O)NC(=O)[C@@H](C)NC(=O)[C@@H](N)Cc1ccc(O)cc1)[C@@H](C)O)[C@@H](C)CC)C(=O)N[C@@H](CC(C)C)C(=O)N[C@@H](CC(C)C)C(=O)N[C@@H](CC(=O)O)C(=O)N[C@@H](CCCCN)C(=O)N[C@@H](CCCCNC(=O)COCCOCCNC(=O)COCCOCCNC(=O)CC[C@H](NC(=O)CCCCCCCCCCCCCCCCC(=O)O)C(=O)O)C(=O)N[C@@H](C)C(=O)N[C@@H](CCC(N)=O)C(=O)NC(C)(C)C(=O)N[C@@H](CC(=O)O)C(=O)N[C@@H](Cc1ccccc1)C(=O)N[C@H](C(=O)N[C@@H](CC(N)=O)C(=O)N[C@@H](Cc1c[nH]c2ccccc12)C(=O)N[C@@H](CC(C)C)C(=O)N[C@@H](CC(C)C)C(=O)N[C@@H](C)C(=O)N[C@@H](CCC(N)=O)C(=O)NCC(=O)N1CCC[C@H]1C(=O)N[C@@H](CO)C(=O)N[C@@H](CO)C(=O)NCC(=O)N[C@@H](C)C(=O)N1CCC[C@H]1C(=O)N1CCC[C@H]1C(=O)N1CCC[C@H]1C(=O)N[C@@H](CO)C(N)=O)C(C)C
In the case of B5, in the assay with human GLP-1 receptor, the “hGLP1R cAMP Rel EC50” value was above 5000 nM. Also, the “hGcgR cAMP Rel EC50” value in the assay with human glucagon receptor was above 5000 nM. Also, the “hGIPR cAMP Rel EC50” value in assay [1] worked out at 0.00469 nM.
